# Test results from the RNAGym collection of RNA variant scans (doi:10.7554/elife.80360).
# B1: CPEB3 Ribozyme (parent)
# chain: GGGGGCCACAGCAGAAGCGUUCACGUCGCGGCCCCUGUCAGAUUCUGGUGAAUCUGCGAAUUCUGCUGU
# Variants of: B1
# Assay: self-cleavage, relative activity (ratio to wild type); higher = more cleavage; co-transcriptional
row,Variant,self-cleavage
1,U61C U69G,0.974
2,U61G,0.935
3,U61G C63A,0.673
4,U61G C63G,0.396
5,U61G C63U,0.57
6,U61G C66A,0.495
7,U61G C66G,0.538
8,U61G G65A,0.672
9,U61G G65U,0.483
10,U61G G68A,0.988
11,U61G G68C,0.867
12,U61G G68U,0.826
13,U61G U64A,0.555
14,U61G U64G,0.397
15,U61G U67A,0.841
16,U61G U67C,0.708
17,U61G U69G,0.999
18,U62A,0.957
19,U62A C63A,0.822
20,U62A C63G,0.481
21,U62A C66A,0.499

row,Variant,self-cleavage
1,U62A C66G,0.458
2,U62A G65A,0.546
3,U62A G68A,0.924
4,U62A G68C,0.949
5,U62A U64A,0.452
6,U62A U64C,0.61
7,U62A U67A,0.924
8,U62A U67C,0.908
9,U62A U69A,0.942
10,U62A U69G,1
11,U62C,0.927
12,U62C C63G,0.545
13,U62C C63U,0.795
14,U62C C66A,0.5
15,U62C G65C,0.488
16,U62C G68A,1
17,U62C G68C,0.806
18,U62C G68U,0.934
19,U62C U64A,0.507
20,U62C U64C,0.46
21,U62C U64G,0.489

row,Variant,self-cleavage
1,U62C U67A,0.738
2,U62C U67C,0.687
3,U62C U67G,0.865
4,U62C U69A,1.01
5,U62C U69C,1.03
6,U62C U69G,0.984
7,U62G,0.925
8,U62G C63A,0.856
9,U62G C63G,0.334
10,U62G C63U,0.661
11,U62G C66A,0.376
12,U62G C66U,0.579
13,U62G G65A,0.285
14,U62G G65C,0.475
15,U62G G68A,0.894
16,U62G G68U,0.683
17,U62G U64G,0.533
18,U62G U67A,0.764
19,U62G U69A,0.937
20,U62G U69C,1.03
21,U62G U69G,1.01

row,Variant,self-cleavage
1,C63A,0.919
2,C63A G65A,0.509
3,C63A G65U,0.789
4,C63A G68A,0.964
5,C63A G68C,0.931
6,C63A G68U,0.878
7,C63A U64A,0.62
8,C63A U64C,0.639
9,C63A U67A,0.757
10,C63A U67C,0.651
11,C63A U67G,0.758
12,C63A U69A,0.949
13,C63A U69C,1.07
14,C63A U69G,0.991
15,C63G,0.87
16,C63G C66A,0.248
17,C63G C66G,0.487
18,C63G C66U,0.387
19,C63G G65C,0.366
20,C63G G68A,0.849
21,C63G G68U,0.584
